Publication PMC9352680, “A comprehensive thermodynamic model for RNA binding by the Saccharomyces cerevisiae Pumilio protein PUF4”

The binders below were run against T1, PUF4 RNA-binding domain (Saccharomyces cerevisiae, UniProt P25339 537-888) (assay: Mg; RNA-MaP; 20 mM Na-HEPES pH 7.4, 30 mM KOAc, 0.75 mM MgCl2, 0.1% Tween-20, 5% glycerol, 0.1 mg/mL BSA, 2 mM DTT; 25 C; 0.0125-409.6 nM protein). Conditions: tags: N-His6-TEV cleaved; C-SNAP kept, Cy3B-labelled; label: tethered on chip by stalled RNA polymerase.
T1 sequence: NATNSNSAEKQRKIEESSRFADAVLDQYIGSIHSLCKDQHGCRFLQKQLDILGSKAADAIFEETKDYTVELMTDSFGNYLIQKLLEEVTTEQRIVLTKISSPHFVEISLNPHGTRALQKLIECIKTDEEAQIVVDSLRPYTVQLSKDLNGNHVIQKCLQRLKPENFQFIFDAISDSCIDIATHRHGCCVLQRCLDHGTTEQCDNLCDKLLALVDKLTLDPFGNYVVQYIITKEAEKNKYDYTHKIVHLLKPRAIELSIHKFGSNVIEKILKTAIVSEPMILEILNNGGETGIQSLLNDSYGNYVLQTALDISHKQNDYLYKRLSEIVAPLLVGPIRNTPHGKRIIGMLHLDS

Binder	Kd
UCUCUUUGUAAAUCUCUCUU (ssRNA) [Ic_S1_P3E.1_K3.1_C3.1_H3.1_A3.1_[T5A]_F3.1_[A8C]_T3.1]	343 nM
UCUCUUUGUAUAUCGCUCUCUU (ssRNA) [Ic_S1_P5E.1_K5.1_C5.1_H5.1_A5.1_[T6A]_[A7T]_F5.1_[T8C]_[T9G]_[A10C]_T5.1]	27.4 nM
UCUCUUUGUACAGUCUUCUCUU (ssRNA) [Ic_S1_P5E.1_K5.1_C5.1_H5.1_A5.1_[T5C]_[T6A]_[A7G]_F5.1_[T9C]_[A10T]_T5.1]	22.9 nM
UCUCUUUGUAAAUGUCUCUU (ssRNA) [Ic_S1_P3E.1_K3.1_C3.1_H3.1_A3.1_[T5A]_F3.1_[A8G]_T3.1]	97.5 nM
UCUCUUUGUAUCGGUAUCUCUU (ssRNA) [Ic_S1_P5E.1_K5.1_C5.1_H5.1_A5.1_[T6C]_[A7G]_F5.1_[T8G]_T5.1]	43.9 nM
UCUCUUUGUACGCAUGUCUCUU (ssRNA) [Ic_S1_P5E.1_K5.1_C5.1_H5.1_A5.1_[T5C]_[T6G]_[A7C]_F5.1_[T8A]_[A10G]_T5.1]	581 nM
UCUCUUUGUACUCAGCUCUCUU (ssRNA) [Ic_S1_P5E.1_K5.1_C5.1_H5.1_A5.1_[T5C]_[A7C]_F5.1_[T8A]_[T9G]_[A10C]_T5.1]	945 nM
UCUCUUUGUAUAUCGAUCUCUU (ssRNA) [Ic_S1_P5E.1_K5.1_C5.1_H5.1_A5.1_[T6A]_[A7T]_F5.1_[T8C]_[T9G]_T5.1]	38.9 nM
UCUCUUUGUAUAUAGUUCUCUU (ssRNA) [Ic_S1_P5E.1_K5.1_C5.1_H5.1_A5.1_[T6A]_[A7T]_F5.1_[T8A]_[T9G]_[A10T]_T5.1]	4.66 nM
UCUCUUUGUAUUUAUUCUCUU (ssRNA) [Ic_S1_P4E.1_K4.1_C4.1_H4.1_A4.1_[A6T]_F4.1_[T8A]_[A9T]_T4.1]	31.8 nM
UCUCUUUGUACGAUCAUCUCUU (ssRNA) [Ic_S1_P5E.1_K5.1_C5.1_H5.1_A5.1_[T5C]_[T6G]_F5.1_[T9C]_T5.1]	88.9 nM
UCUCUUUGUAAAUUUCUCUU (ssRNA) [Ic_S1_P3E.1_K3.1_C3.1_H3.1_A3.1_[T5A]_F3.1_[A8T]_T3.1]	16.9 nM
UCUCUUUGUAUUUGCUCUCUU (ssRNA) [Ic_S1_P4E.1_K4.1_C4.1_H4.1_A4.1_[A6T]_F4.1_[T8G]_[A9C]_T4.1]	350 nM
UCUCUUUGUAUAGCGUCUCUU (ssRNA) [Ic_S1_P4E.1_K4.1_C4.1_H4.1_A4.1_[T7G]_F4.1_[T8C]_[A9G]_T4.1]	283 nM
UCUCUUUGUACUAAAAUCUCUU (ssRNA) [Ic_S1_P5E.1_K5.1_C5.1_H5.1_A5.1_[T5C]_F5.1_[T8A]_[T9A]_T5.1]	58.8 nM
UCUCUUUGUACAUCUCUCUU (ssRNA) [Ib_S1_P3E.1_K3.1_C3.1_H3.1_A3.1_[T5C]_F3.1_[A8C]_T3.1]	15.9 nM
UCUCUUUGUAUUUAGUCUCUU (ssRNA) [Ic_S1_P4E.1_K4.1_C4.1_H4.1_A4.1_[A6T]_F4.1_[T8A]_[A9G]_T4.1]	25.3 nM
UCUCUUUGUAUCUUAGUCUCUU (ssRNA) [Ic_S1_P5E.1_K5.1_C5.1_H5.1_A5.1_[T6C]_[A7T]_F5.1_[T9A]_[A10G]_T5.1]	3.71 nM
UCUCUUUGUAUAUUAUCUCUU (ssRNA) [Ic_S1_P4E.1_K4.1_C4.1_H4.1_A4.1_F4.1_T4.1]	0.576 nM
UCUCUUUGUAGUUUCCUCUCUU (ssRNA) [Ic_S1_P5E.1_K5.1_C5.1_H5.1_A5.1_[T5G]_[A7T]_F5.1_[T9C]_[A10C]_T5.1]	479 nM
UCUCUUUGUAUACCGUCUCUU (ssRNA) [Ic_S1_P4E.1_K4.1_C4.1_H4.1_A4.1_[T7C]_F4.1_[T8C]_[A9G]_T4.1]	542 nM
UCUCUUUGUAUUCCCUUCUCUU (ssRNA) [Ic_S1_P5E.1_K5.1_C5.1_H5.1_A5.1_[A7C]_F5.1_[T8C]_[T9C]_[A10T]_T5.1]	653 nM

Binder	Kd
UCUCUUUGUACUGUCAUCUCUU (ssRNA) [Ic_S1_P5E.1_K5.1_C5.1_H5.1_A5.1_[T5C]_[A7G]_F5.1_[T9C]_T5.1]	116 nM
UCUCUUUGUAACACGGUCUCUU (ssRNA) [Ic_S1_P5E.1_K5.1_C5.1_H5.1_A5.1_[T5A]_[T6C]_F5.1_[T8C]_[T9G]_[A10G]_T5.1]	2070 nM
UCUCUUUGUAUAACUUCUCUU (ssRNA) [Ic_S1_P4E.1_K4.1_C4.1_H4.1_A4.1_[T7A]_F4.1_[T8C]_[A9T]_T4.1]	44.2 nM
UCUCUUUGUAACCGCCUCUCUU (ssRNA) [Ic_S1_P5E.1_K5.1_C5.1_H5.1_A5.1_[T5A]_[T6C]_[A7C]_F5.1_[T8G]_[T9C]_[A10C]_T5.1]	2070 nM
UCUCUUUGUAUGUGUCUCUU (ssRNA) [Ic_S1_P3E.1_K3.1_C3.1_H3.1_A3.1_[A6G]_F3.1_[A8G]_T3.1]	472 nM
UCUCUUUGUAUAACCUCUCUU (ssRNA) [Ic_S1_P4E.1_K4.1_C4.1_H4.1_A4.1_[T7A]_F4.1_[T8C]_[A9C]_T4.1]	62.8 nM
UCUCUUUGUAAUCACCUCUCUU (ssRNA) [Ic_S1_P5E.1_K5.1_C5.1_H5.1_A5.1_[T5A]_[A7C]_F5.1_[T8A]_[T9C]_[A10C]_T5.1]	1200 nM
UCUCUUUGUACCGACCUCUCUU (ssRNA) [Ic_S1_P5E.1_K5.1_C5.1_H5.1_A5.1_[T5C]_[T6C]_[A7G]_F5.1_[T8A]_[T9C]_[A10C]_T5.1]	> 2300 nM
UCUCUUUGUACGUCCCUCUCUU (ssRNA) [Ic_S1_P5E.1_K5.1_C5.1_H5.1_A5.1_[T5C]_[T6G]_[A7T]_F5.1_[T8C]_[T9C]_[A10C]_T5.1]	394 nM
UCUCUUUGUAAUGCAUUCUCUU (ssRNA) [Ic_S1_P5E.1_K5.1_C5.1_H5.1_A5.1_[T5A]_[A7G]_F5.1_[T8C]_[T9A]_[A10T]_T5.1]	910 nM
UCUCUUUGUAUCACAUUCUCUU (ssRNA) [Ic_S1_P5E.1_K5.1_C5.1_H5.1_A5.1_[T6C]_F5.1_[T8C]_[T9A]_[A10T]_T5.1]	106 nM
UCUCUUUGUAAUACUCUCUCUU (ssRNA) [Ic_S1_P5E.1_K5.1_C5.1_H5.1_A5.1_[T5A]_F5.1_[T8C]_[A10C]_T5.1]	642 nM
UCUCUUUGUAUAAACUCUCUU (ssRNA) [Ic_S1_P4E.1_K4.1_C4.1_H4.1_A4.1_[T7A]_F4.1_[T8A]_[A9C]_T4.1]	70 nM
UCUCUUUGUAUGUCACUCUCUU (ssRNA) [Ic_S1_P5E.1_K5.1_C5.1_H5.1_A5.1_[T6G]_[A7T]_F5.1_[T8C]_[T9A]_[A10C]_T5.1]	132 nM
UCUCUUUGUAACUCCAUCUCUU (ssRNA) [Ic_S1_P5E.1_K5.1_C5.1_H5.1_A5.1_[T5A]_[T6C]_[A7T]_F5.1_[T8C]_[T9C]_T5.1]	616 nM
UCUCUUUGUAUUUACUCUCUU (ssRNA) [Ic_S1_P4E.1_K4.1_C4.1_H4.1_A4.1_[A6T]_F4.1_[T8A]_[A9C]_T4.1]	74.9 nM
UCUCUUUGUAUACGGUCUCUU (ssRNA) [Ic_S1_P4E.1_K4.1_C4.1_H4.1_A4.1_[T7C]_F4.1_[T8G]_[A9G]_T4.1]	683 nM
UCUCUUUGUAUAACGUCUCUU (ssRNA) [Ic_S1_P4E.1_K4.1_C4.1_H4.1_A4.1_[T7A]_F4.1_[T8C]_[A9G]_T4.1]	42.3 nM
UCUCUUUGUAUACCGUUCUCUU (ssRNA) [Ic_S1_P5E.1_K5.1_C5.1_H5.1_A5.1_[T6A]_[A7C]_F5.1_[T8C]_[T9G]_[A10T]_T5.1]	334 nM
UCUCUUUGUAUACCCUCUCUU (ssRNA) [Ic_S1_P4E.1_K4.1_C4.1_H4.1_A4.1_[T7C]_F4.1_[T8C]_[A9C]_T4.1]	93.4 nM
UCUCUUUGUAUUACAUUCUCUU (ssRNA) [Ic_S1_P5E.1_K5.1_C5.1_H5.1_A5.1_F5.1_[T8C]_[T9A]_[A10T]_T5.1]	121 nM
UCUCUUUGUAUACAGUCUCUU (ssRNA) [Ic_S1_P4E.1_K4.1_C4.1_H4.1_A4.1_[T7C]_F4.1_[T8A]_[A9G]_T4.1]	95.6 nM

Binder	Kd
UCUCUUUGUACCCAACUCUCUU (ssRNA) [Ic_S1_P5E.1_K5.1_C5.1_H5.1_A5.1_[T5C]_[T6C]_[A7C]_F5.1_[T8A]_[T9A]_[A10C]_T5.1]	836 nM
UCUCUUUGUAUACAUUCUCUU (ssRNA) [Ic_S1_P4E.1_K4.1_C4.1_H4.1_A4.1_[T7C]_F4.1_[T8A]_[A9T]_T4.1]	48.5 nM
UCUCUUUGUAAGUUCUUCUCUU (ssRNA) [Ic_S1_P5E.1_K5.1_C5.1_H5.1_A5.1_[T5A]_[T6G]_[A7T]_F5.1_[T9C]_[A10T]_T5.1]	388 nM
UCUCUUUGUACAUUUCUCUU (ssRNA) [Ic_S1_P3E.1_K3.1_C3.1_H3.1_A3.1_[T5C]_F3.1_[A8T]_T3.1]	5.42 nM
UCUCUUUGUAUCCCGGUCUCUU (ssRNA) [Ic_S1_P5E.1_K5.1_C5.1_H5.1_A5.1_[T6C]_[A7C]_F5.1_[T8C]_[T9G]_[A10G]_T5.1]	> 2300 nM
UCUCUUUGUACAUUAAUCUCUU (ssRNA) [Ic_S1_P5E.1_K5.1_C5.1_H5.1_A5.1_[T5C]_[T6A]_[A7T]_F5.1_[T9A]_T5.1]	0.904 nM
UCUCUUUGUACCAACCUCUCUU (ssRNA) [Ic_S1_P5E.1_K5.1_C5.1_H5.1_A5.1_[T5C]_[T6C]_F5.1_[T8A]_[T9C]_[A10C]_T5.1]	556 nM
UCUCUUUGUACGGUAAUCUCUU (ssRNA) [Ic_S1_P5E.1_K5.1_C5.1_H5.1_A5.1_[T5C]_[T6G]_[A7G]_F5.1_[T9A]_T5.1]	16.8 nM
UCUCUUUGUAUAAAUUCUCUU (ssRNA) [Ic_S1_P4E.1_K4.1_C4.1_H4.1_A4.1_[T7A]_F4.1_[T8A]_[A9T]_T4.1]	67.2 nM
UCUCUUUGUACAGCCAUCUCUU (ssRNA) [Ic_S1_P5E.1_K5.1_C5.1_H5.1_A5.1_[T5C]_[T6A]_[A7G]_F5.1_[T8C]_[T9C]_T5.1]	316 nM
UCUCUUUGUACCUAACUCUCUU (ssRNA) [Ic_S1_P5E.1_K5.1_C5.1_H5.1_A5.1_[T5C]_[T6C]_[A7T]_F5.1_[T8A]_[T9A]_[A10C]_T5.1]	65.6 nM
UCUCUUUGUAAUCACGUCUCUU (ssRNA) [Ic_S1_P5E.1_K5.1_C5.1_H5.1_A5.1_[T5A]_[A7C]_F5.1_[T8A]_[T9C]_[A10G]_T5.1]	1250 nM
UCUCUUUGUACUCUCGUCUCUU (ssRNA) [Ic_S1_P5E.1_K5.1_C5.1_H5.1_A5.1_[T5C]_[A7C]_F5.1_[T9C]_[A10G]_T5.1]	70.5 nM
UCUCUUUGUAUAGCCUCUCUU (ssRNA) [Ic_S1_P4E.1_K4.1_C4.1_H4.1_A4.1_[T7G]_F4.1_[T8C]_[A9C]_T4.1]	108 nM
UCUCUUUGUACCUUUUUCUCUU (ssRNA) [Ic_S1_P5E.1_K5.1_C5.1_H5.1_A5.1_[T5C]_[T6C]_[A7T]_F5.1_[A10T]_T5.1]	26.7 nM
UCUCUUUGUAUUUCCUCUCUU (ssRNA) [Ic_S1_P4E.1_K4.1_C4.1_H4.1_A4.1_[A6T]_F4.1_[T8C]_[A9C]_T4.1]	313 nM
UCUCUUUGUAAUCCCAUCUCUU (ssRNA) [Ic_S1_P5E.1_K5.1_C5.1_H5.1_A5.1_[T5A]_[A7C]_F5.1_[T8C]_[T9C]_T5.1]	868 nM
UCUCUUUGUAUACGCUCUCUU (ssRNA) [Ic_S1_P4E.1_K4.1_C4.1_H4.1_A4.1_[T7C]_F4.1_[T8G]_[A9C]_T4.1]	367 nM
UCUCUUUGUAUUUCGUCUCUU (ssRNA) [Ic_S1_P4E.1_K4.1_C4.1_H4.1_A4.1_[A6T]_F4.1_[T8C]_[A9G]_T4.1]	462 nM
UCUCUUUGUAUACACUCUCUU (ssRNA) [Ic_S1_P4E.1_K4.1_C4.1_H4.1_A4.1_[T7C]_F4.1_[T8A]_[A9C]_T4.1]	118 nM
UCUCUUUGUACAUAUUUCUCUU (ssRNA) [Ic_S1_P5E.1_K5.1_C5.1_H5.1_A5.1_[T5C]_[T6A]_[A7T]_F5.1_[T8A]_[A10T]_T5.1]	5.5 nM
